Measurements as given in IntAct's records for PubMed 20551905.

B1: SUN domain-containing protein 2 (Homo sapiens), Q9UH99 (parent)
chain: MSRRSQRLTRYSQGDDDGSSSSGGSSVAGSQSTLFKDSPLRTLKRKSSNMKRLSPAPQLGPSSDAHTSYYSESLVHESWFPPRSSLEELHGDANWGEDLRVRRRRGTGGSESSRASGLVGRKATEDFLGSSSGYSSEDDYVGYSDVDQQSSSSRLRSAVSRAGSLLWMVATSPGRLFRLLYWWAGTTWYRLTTAASLLDVFVLTRRFSSLKTFLWFLLPLLLLTCLTYGAWYFYPYGLQTFHPALVSWWAAKDSRRPDEGWEARDSSPHFQAEQRVMSRVHSLERRLEALAAEFSSNWQKEAMRLERLELRQGAPGQGGGGGLSHEDTLALLEGLVSRREAALKEDFRRETAARIQEELSALRAEHQQDSEDLFKKIVRASQESEARIQQLKSEWQSMTQESFQESSVKELRRLEDQLAGLQQELAALALKQSSVAEEVGLLPQQIQAVRDDVESQFPAWISQFLARGGGGRVGLLQREEMQAQLRELESKILTHVAEMQGKSAREAAASLSLTLQKEGVIGVTEEQVHHIVKQALQRYSEDRIGLADYALESGGASVISTRCSETYETKTALLSLFGIPLWYHSQSPRVILQPDVHPGNCWAFQGPQGFAVVRLSARIRPTAVTLEHVPKALSPNSTISSAPKDFAIFGFDEDLQQEGTLLGKFTYDQDGEPIQTFHFQAPTMATYQVVELRILTNWGHPEYTCIYRFRVHGEPAH

Variants of: B1
Conditions: with copb_human COPB1, P53618
Sequence of copb_human COPB1, P53618 (P53618 whole entry): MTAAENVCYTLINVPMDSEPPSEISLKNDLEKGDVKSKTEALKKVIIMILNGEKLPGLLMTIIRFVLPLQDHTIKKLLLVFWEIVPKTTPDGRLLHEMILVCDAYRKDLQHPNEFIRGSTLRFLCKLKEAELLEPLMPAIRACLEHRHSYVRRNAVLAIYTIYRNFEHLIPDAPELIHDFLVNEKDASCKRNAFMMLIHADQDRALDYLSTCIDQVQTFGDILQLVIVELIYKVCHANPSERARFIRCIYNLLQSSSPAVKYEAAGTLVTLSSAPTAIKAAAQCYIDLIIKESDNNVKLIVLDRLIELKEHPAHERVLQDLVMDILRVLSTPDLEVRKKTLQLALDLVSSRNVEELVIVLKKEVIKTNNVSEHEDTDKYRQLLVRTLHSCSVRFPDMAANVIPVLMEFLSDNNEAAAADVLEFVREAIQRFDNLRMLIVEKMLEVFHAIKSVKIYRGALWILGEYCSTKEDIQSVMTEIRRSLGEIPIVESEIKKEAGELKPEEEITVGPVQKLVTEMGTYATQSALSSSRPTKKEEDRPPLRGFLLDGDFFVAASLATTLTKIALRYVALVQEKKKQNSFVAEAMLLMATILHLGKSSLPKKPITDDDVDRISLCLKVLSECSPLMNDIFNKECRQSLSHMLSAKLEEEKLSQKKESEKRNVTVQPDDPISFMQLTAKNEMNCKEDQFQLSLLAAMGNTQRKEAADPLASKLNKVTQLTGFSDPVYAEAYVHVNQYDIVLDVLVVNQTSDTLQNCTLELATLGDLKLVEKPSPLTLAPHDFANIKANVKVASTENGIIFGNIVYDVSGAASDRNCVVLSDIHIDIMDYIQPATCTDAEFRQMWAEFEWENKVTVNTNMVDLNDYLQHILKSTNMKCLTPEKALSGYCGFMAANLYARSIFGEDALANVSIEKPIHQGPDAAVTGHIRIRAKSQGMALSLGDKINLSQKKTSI

Question: With R41A as the variant, how does the “effect of a mutation on the interaction” value read?
Answer: disrupting interaction

Question: For K44A, which “effect of a mutation on the interaction” value is on record?
Answer: disrupting interaction

Question: How did the “effect of a mutation on the interaction” value turn out when R45A was run?
Answer: disrupting interaction

Question: Which “effect of a mutation on the interaction” value does the source give for K46A here?
Answer: disrupting interaction

Question: K51A was tested. Which “effect of a mutation on the interaction” value did it give?
Answer: disrupting interaction

Question: For R52A, which “effect of a mutation on the interaction” value is on record?
Answer: disrupting interaction

Question: For R102A;R103A;R104A;R105A, which “effect of a mutation on the interaction” value is on record?
Answer: disrupting interaction
